Assay results from patent publication US20260250391A1 (NEW YORK UNIVERSITY, published 2026).
Where a chain is given by its changes, count along the chain named. Values belong to the binder of their own block, whether it stands above or below them.

What was measured:
[1] = target: T1, Endogenous human ICAM-2 on the surface of Primary Umbilical Vein Endothelial Cells (HUVEC) (human, UniProt P13598 25-275); test: Flow cytometry (MFI) of negative control monobody bound to streptavidin DyLight 650 on HUVEC; concentration as monomer [panel B]
T1 construct: whole, on cells; also called cell surface ICAM-2; endogenous ICAM-2
T1 sequence (looked up): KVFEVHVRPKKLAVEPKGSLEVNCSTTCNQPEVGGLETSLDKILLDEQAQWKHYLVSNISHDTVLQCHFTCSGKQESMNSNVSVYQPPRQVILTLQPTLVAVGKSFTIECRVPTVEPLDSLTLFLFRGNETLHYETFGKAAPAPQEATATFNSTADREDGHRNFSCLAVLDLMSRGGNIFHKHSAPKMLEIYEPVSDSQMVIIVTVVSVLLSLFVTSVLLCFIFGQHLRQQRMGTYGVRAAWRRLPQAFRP
Method: Whether Mb_ICAM2_S40 detected endogenous ICAM-2 molecules expressed on the surface of human cells was tested. […] The expression of ICAM-2 in HUVEC but not in Expi293 was confirmed using a commercially available anti-hICAM-2 antibody (FIG. 2D).

[2] = target: T2, Pig ICAM-2 extracellular region (UniProt ID Q6VY03; residues 24-250), C-terminally fused to His6 and Avi-tags (pig, UniProt Q6VY03 24-250, Possibly biotinylated on the Avi-tag, as for human ICAM-2 in Example 1; this is not stated for pig. The tag is not included in the letters.); test: BLI (Octet) of the monobody with pig ICAM-2
T2 construct: also called pICAM-2
T2 sequence: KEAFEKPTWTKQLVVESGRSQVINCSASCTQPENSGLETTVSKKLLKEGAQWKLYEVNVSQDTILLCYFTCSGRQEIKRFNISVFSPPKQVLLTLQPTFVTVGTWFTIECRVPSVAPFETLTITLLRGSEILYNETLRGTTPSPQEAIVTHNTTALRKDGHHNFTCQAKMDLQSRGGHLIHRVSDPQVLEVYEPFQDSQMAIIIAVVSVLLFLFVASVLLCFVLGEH
Text: (§1) The four monobody samples identified in Example 1 were produced as purified proteins with N-terminal tags containing His6 and Avi-tag, followed by enzymatic biotinylation using the BirA enzyme. The proteins were immobilized on streptavidin-coated biolayer interferometry (BLI) tips using an Octet instrument (Sartorius) and their interaction with human ICAM-2 was monitored with the instrument (FIG. 1).
Biolayer interferometry (BLI) for five of the monobodies (Mb_pICAM2_L1, Mb_pICAM2_L6, Mb_pICAM2_L11, Mb_pICAM2_L14, and Mb_pICAM2_L22) was carried out using the procedures and equipment described above (FIG. 5).

[3] = target: T3, Human ICAM-2 extracellular region (UniProt ID P13598; residues 25-223), C-terminally fused to His6 and … (human, UniProt P13598 25-223, biotinylated with BirA (Avi-tag) when used as selection antigen); test: BLI (Octet): biotinylated monobody on streptavidin tips, human ICAM-2 in solution; global 1:1 fit without the highest concentration
T3 construct: range 25-223; Expressed from EXPI293 cells; also called hICAM-2; not shown: C-terminal His6 and Avi-tags
T3 sequence (looked up): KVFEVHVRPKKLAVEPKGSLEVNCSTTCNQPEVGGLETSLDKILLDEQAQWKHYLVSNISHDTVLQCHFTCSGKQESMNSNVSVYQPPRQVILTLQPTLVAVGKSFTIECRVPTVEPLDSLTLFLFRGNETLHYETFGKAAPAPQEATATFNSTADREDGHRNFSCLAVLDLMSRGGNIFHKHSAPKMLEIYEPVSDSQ
Method: as §1
FIG. 1 depicts BLI sensorgrams. The global fitting of the 1:1 binding model was performed on the data after excluding the highest concentration sensorgrams, because the association rates in the highest concentration data are too high for accurate fitting. The KD values from the global fitting are shown.

- binding result [1]: no binding (tested: 200 nM)
B1: Negative control monobody (SEQ ID NO: 34) (designed binder)
chain: VSSVPTKLEVVAATPTSLLISWDASSSSVSYYRITYGETGGNSPVQEFTVPGSKSTATISGLKPGVDYTITVYASSSSSSSSSSSKPISINYRT
notes: Tested conjugated to streptavidin DyLight 650; The tags and biotinylation of this control are not described

- Kd [2]: 19.3 nM
B2: Mb_pICAM2_L1 (designed binder)
chain: VSSVPTKLEVVAATPTSLLISWDAGYWSSVAYYRITYGETGGNSPVQEFTVPGSSSTATISGLKPGVDYTITVYAMTSGYSWYSPISINYRT
notes: Identified by yeast display

- Kd [2]: 12.1 nM
B3: Mb_pICAM2_L11 (designed binder)
chain: B2 chain with G53S
notes: Identified by yeast display

- Kd [2]: 16.8 nM
B4: Mb_pICAM2_L22 (designed binder)
chain: B2 chain with S56Y, M76K, G79D
notes: Identified by yeast display

- Kd [2]: 14 nM
B5: Mb_pICAM2_L6 (designed binder)
chain: B2 chain with G53S, M76Q, G79M
notes: Identified by yeast display

- Kd [2]: 11.8 nM
B6: Mb_pICAM2_L14 (designed binder)
chain: B2 chain with A31S, S56Y, M76Q, G79Y
notes: Identified by yeast display

- apparent Kd (pooled screen) [3]: 14 nM
B7: Mb_ICAM2_S40 (designed binder)
chain: VSSVPTKLEVVAATPTSLLISWDAPAVTVLYYFITYGETGGNSPVQEFAVPGSKSTATISGLKPGVDYTITVYALSSKWRYSPISINYRT
modifications: biotin on the Avi-tag (enzymatic biotinylation with BirA) in the BLI and flow cytometry assays
notes: Monobody (FN3 domain from human 10FN3); Purified form carries N-terminal His6 and Avi tags; not shown: N-terminal tags containing His6 and Avi-tag

- Kd [3]: 5.9 nM
B8: Mb_ICAM2_S32 (designed binder)
chain: B7 chain with L75I, S76N, S77Q, K78Y, R80K
modifications: biotin on the Avi-tag (enzymatic biotinylation with BirA) in the BLI assay
notes: as for B7

- Kd [3]: 4.5 nM
B9: Mb_ICAM2_S36 (designed binder)
chain: B7 chain with G41H, N42G, P44A, V45Y, S76W, S77Y, W79G, R80I, Y81T
modifications: biotin on the Avi-tag (enzymatic biotinylation with BirA) in the BLI assay
notes: as for B7

- Kd [3]: 26 nM
B10: Mb_ICAM2_S38 (designed binder)
chain: VSSVPTKLEVVAATPTSLLISWDAPAVTVLYYFITYGETGPASYGAQEFAVPGSKSTATISGLKPGVDYTITVYAISNKWKYSPISINYRT
modifications: biotin on the Avi-tag (enzymatic biotinylation with BirA) in the BLI assay
notes: as for B7
